Patent US20120316071A1 (published 2012)
Substitutions are numbered along the chain they refer to. In names and notes the source's numbering stands. One block for each binder: values may come before it.

Key:
[1] = target: T1, rHuman ErbB2/Fc Chimera, CF (R&D Systems Cat#1129-ER) (human, UniProt P04626 23-652); experiment: ECL multispot (MSD), antigen spotted, Fab in solution; blank spot 407
T1 construct: Bought reagent

[2] = target: T2, rHuman P-Cadherin/Fc Chimera, CF (R&D Systems Cat#861-PC) (human, UniProt P22223 108-654); experiment: as above
T2 construct: Bought reagent

[3] = target: T3, rHuman IGF-1 sR (insulin-like growth factor-1 soluble receptor), CF (R&D Systems Cat#391-GR) (human, UniProt P08069 31-932); experiment: as above
T3 construct: Bought soluble receptor

[4] = target: T4, rHuman Erythropoietin R/Fc Chimera, CF (R&D Systems Cat#963-ER) (human, UniProt P19235 25-250); experiment: as above
T4 construct: Bought reagent; also called EPO R; Epo R/Fc
T4 sequence (looked up): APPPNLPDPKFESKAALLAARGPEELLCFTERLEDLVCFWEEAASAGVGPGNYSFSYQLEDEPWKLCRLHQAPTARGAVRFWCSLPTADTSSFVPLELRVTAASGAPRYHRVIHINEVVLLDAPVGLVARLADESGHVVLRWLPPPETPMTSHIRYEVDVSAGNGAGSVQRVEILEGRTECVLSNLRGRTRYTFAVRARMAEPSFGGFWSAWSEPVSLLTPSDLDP

[5] = target: T5, rHuman Notch-1/Fc Chimera, CF (R&D Systems Cat#3647-TK) (human, UniProt P46531 19-526); experiment: as above
T5 construct: Bought reagent

[6] = target: T6, Recombinant Human DLL4 (R&D Systems Cat#1506-D4/CF) (human, UniProt Q9NR61 27-524); experiment: as above
T6 construct: Bought recombinant protein; also called delta-like protein 4; rHuman DLL4

[7] = target: T7, rHuman HGF R/c-MET/Fc Chimera, CF (R&D Systems Cat#358-MT/CF) (human, UniProt P08581 25-932); experiment: as above
T7 construct: Bought reagent; also called HGF R/Fc
T7 sequence (P08581 25-932, change not shown): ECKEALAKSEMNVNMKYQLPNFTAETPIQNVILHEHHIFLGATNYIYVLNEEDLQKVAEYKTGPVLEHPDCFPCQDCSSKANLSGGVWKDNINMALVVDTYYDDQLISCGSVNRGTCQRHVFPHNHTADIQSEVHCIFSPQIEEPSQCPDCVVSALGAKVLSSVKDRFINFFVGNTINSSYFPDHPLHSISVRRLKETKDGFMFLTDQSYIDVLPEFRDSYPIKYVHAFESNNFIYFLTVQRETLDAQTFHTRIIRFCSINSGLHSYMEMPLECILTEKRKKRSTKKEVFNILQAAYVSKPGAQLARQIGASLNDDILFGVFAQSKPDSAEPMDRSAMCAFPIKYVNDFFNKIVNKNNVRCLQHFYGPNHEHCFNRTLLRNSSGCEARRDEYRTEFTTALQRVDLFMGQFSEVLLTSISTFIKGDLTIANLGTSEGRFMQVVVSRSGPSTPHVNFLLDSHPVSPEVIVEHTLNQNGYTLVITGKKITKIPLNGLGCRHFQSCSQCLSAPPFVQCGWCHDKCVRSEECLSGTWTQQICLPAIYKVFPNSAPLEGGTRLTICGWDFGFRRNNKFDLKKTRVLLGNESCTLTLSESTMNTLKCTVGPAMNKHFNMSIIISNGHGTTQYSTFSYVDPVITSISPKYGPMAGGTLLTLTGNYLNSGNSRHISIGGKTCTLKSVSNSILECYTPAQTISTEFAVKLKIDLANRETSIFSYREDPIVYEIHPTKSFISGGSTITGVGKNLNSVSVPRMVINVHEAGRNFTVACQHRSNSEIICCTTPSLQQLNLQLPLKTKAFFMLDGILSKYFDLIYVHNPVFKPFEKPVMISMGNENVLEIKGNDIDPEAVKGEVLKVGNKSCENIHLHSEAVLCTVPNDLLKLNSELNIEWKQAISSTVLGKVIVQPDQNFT

[8] = target: T8, rHuman CD44/Fc Chimera, CF (R&D Systems Cat#3660-CD) (human, UniProt P16070 21-220); experiment: as above
T8 construct: Bought reagent

[9] = target: T9, rHuman EGF R/Fc Chimera, CF (R&D Systems Cat#344-ER) (human, UniProt P00533 25-645); experiment: as above
T9 construct: Bought reagent

[10] = target: T1, rHuman ErbB2/Fc Chimera, CF (R&D …); experiment: ECL multispot (MSD), antigen spotted, Fab in solution; blank spot 306
[11] = target: T2, rHuman P-Cadherin/Fc Chimera, CF (R&D …); experiment: as above
[12] = target: T3, rHuman IGF-1 sR (insulin-like growth …); experiment: as above
[13] = target: T6, Recombinant Human DLL4 (R&D Systems …); experiment: as above
[14] = target: T7, rHuman HGF R/c-MET/Fc Chimera, CF (R&D …); experiment: as above
[15] = target: T9, rHuman EGF R/Fc Chimera, CF (R&D …); experiment: as above
[16] = target: T1, rHuman ErbB2/Fc Chimera, CF (R&D …); experiment: ECL multispot (MSD), antigen spotted, Fab in solution; blank spot 262
[17] = target: T2, rHuman P-Cadherin/Fc Chimera, CF (R&D …); experiment: as above
[18] = target: T3, rHuman IGF-1 sR (insulin-like growth …); experiment: as above
[19] = target: T4, rHuman Erythropoietin R/Fc Chimera, CF …; experiment: as above
[20] = target: T5, rHuman Notch-1/Fc Chimera, CF (R&D …); experiment: as above
[21] = target: T6, Recombinant Human DLL4 (R&D Systems …); experiment: as above
[22] = target: T7, rHuman HGF R/c-MET/Fc Chimera, CF (R&D …); experiment: as above
[23] = target: T8, rHuman CD44/Fc Chimera, CF (R&D Systems …); experiment: as above
[24] = target: T9, rHuman EGF R/Fc Chimera, CF (R&D …); experiment: as above
[25] = target: T1, rHuman ErbB2/Fc Chimera, CF (R&D …); experiment: ECL multispot (MSD), antigen spotted, Fab in solution; blank spot 416
[26] = target: T2, rHuman P-Cadherin/Fc Chimera, CF (R&D …); experiment: as above
[27] = target: T3, rHuman IGF-1 sR (insulin-like growth …); experiment: as above
[28] = target: T4, rHuman Erythropoietin R/Fc Chimera, CF …; experiment: as above
[29] = target: T5, rHuman Notch-1/Fc Chimera, CF (R&D …); experiment: as above
[30] = target: T6, Recombinant Human DLL4 (R&D Systems …); experiment: as above
[31] = target: T7, rHuman HGF R/c-MET/Fc Chimera, CF (R&D …); experiment: as above
[32] = target: T8, rHuman CD44/Fc Chimera, CF (R&D Systems …); experiment: as above
[33] = target: T9, rHuman EGF R/Fc Chimera, CF (R&D …); experiment: as above

B1: Fab VH1-46_IGHD6-6*01_IGHJ1*01 S102A/S103P/S104F/H111F (APFF) & L6_IGKJ1*01 S30T (Fab, V domains shown)
VH: QVQLVQSGAEVKKPGASVKVSCKASGYTFTSYYMHWVRQAPGQGLEWMGIINPSGGSTSYAQKFQGRVTMTRDTSTSTVYMELSSLRSEDTAVYYCAREEYAPFSAEYFQFWGQGTLVTVSS
VL: EIVLTQSPATLSLSPGERATLSCRASQSVTSYLAWYQQKPGQAPRLLIYDASNRATGIPARFSGSGSGTDFTLTISSLEPEDFAVYYCQQRSNWPPWTFGQGTKVEIKR
notes: Tested as Fab made in E. coli: VH joined to CH1 from Plasmid A (His6 and Flag tags), VL joined to kappa CL from Plasmid C; also called APFF / S30T
ECL signal [1]: 332
ECL signal [2]: 370
ECL signal [3]: 410
ECL signal [4]: 497
ECL signal [5]: 413
ECL signal [6]: 122000
ECL signal [7]: 375
ECL signal [8]: 423
ECL signal [9]: 360

B2: Fab VH1-46_IGHD6-6*01_IGHJ1*01 S102A/S103P/S104F/H111F (APFF) & L6_IGKJ1*01 (Fab, V domains shown)
VH: B1 VH
VL: not shown
notes: Tested as Fab made in E. coli: VH joined to CH1 from Plasmid A (His6 and Flag tags), VL joined to kappa CL from Plasmid C; Light chain unmutated (parent); also called APFF / parent; H:APFF & L:wt
ECL signal [10]: 412
ECL signal [11]: 466
ECL signal [12]: 409
ECL signal [13]: 208000
ECL signal [14]: 349
ECL signal [15]: 386

Continued, values first:

ECL signal [16]: 391
ECL signal [17]: 348
ECL signal [18]: 356
ECL signal [19]: 520
ECL signal [20]: 544
ECL signal [21]: 1140
ECL signal [22]: 328
ECL signal [23]: 334
ECL signal [24]: 394
B3: Fab VH1-46_IGHD6-6*01_IGHJ1*01 S102A/S103P/S104F/H111F (APFF) & L6_IGKJ1*01 S30P (Fab, V domains shown)
VH: B1 VH
VL: B1 VL with T30P
notes: Tested as Fab made in E. coli: VH joined to CH1 from Plasmid A (His6 and Flag tags), VL joined to kappa CL from Plasmid C; also called APFF / S30P

ECL signal [25]: 434
ECL signal [26]: 465
ECL signal [27]: 404
ECL signal [28]: 571
ECL signal [29]: 576
ECL signal [30]: 146000
ECL signal [31]: 458
ECL signal [32]: 455
ECL signal [33]: 456
B4: Fab VH1-46_IGHD6-6*01_IGHJ1*01 S102A/S103P/S104F/H111F (APFF) & L6_IGKJ1*01 S30R (Fab, V domains shown)
VH: B1 VH
VL: B1 VL with T30R
notes: Tested as Fab made in E. coli: VH joined to CH1 from Plasmid A (His6 and Flag tags), VL joined to kappa CL from Plasmid C; also called APFF / S30R
